Laboratory results published in patent US20170253656A1.

Target: CD74 on CD74 positive SU-DHL-6 cells, P04233
Experiment: cell-based or functional assay

CD74 on CD74 positive SU-DHL-6 cells, P04233, sequence (P04233 whole entry): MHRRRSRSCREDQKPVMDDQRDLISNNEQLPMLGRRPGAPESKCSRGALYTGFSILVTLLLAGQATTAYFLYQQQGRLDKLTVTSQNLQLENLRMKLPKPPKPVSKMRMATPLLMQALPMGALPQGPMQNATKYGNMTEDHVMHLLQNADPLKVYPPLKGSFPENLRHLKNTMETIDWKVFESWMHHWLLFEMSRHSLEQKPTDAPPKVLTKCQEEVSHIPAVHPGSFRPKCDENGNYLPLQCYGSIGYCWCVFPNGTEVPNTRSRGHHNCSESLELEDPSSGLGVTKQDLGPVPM

Binder	2nd ADC Cell Killing IC50
1251-A03 heavy chain paired with VL SEQ ID NO: 272 (antibody, V domains shown) VH: QVQLVESGGGVVQPGRSLRLSCAASGFAFSDHGMHWVRQAPDKGLEWVAVIWYDGSHKIYADSVKGRFTISRDNSKNTLYLQMNSLRAEDTAVYYCARGGSLAGGAVYGTDVWGQGTTVTVSS VL: DIQMTQSPSSLSASVGDRVTITCRASQGISSWLAWYQQKPEKAPKSLIYAASSLQSGVPSRFSGSGSGTDFTLTISSLQPEDFATYYCQQYNSYPLTFGGGTKVEIK	10 pM
1251-B09 heavy chain paired with VL SEQ ID NO: 272 (antibody, V domains shown) VH: QVQLVESGGGVVQPGRSLRLSCAASGFNFSDYGMHWVRQAPDKGLEWVAVTWYDGSREYYADSVKGRFTISRDNSKNTLYLQMNSLRAEDTAVYYCARGGTLVHGALYGNDVWGQGTTVTVSS VL: DIQMTQSPSSLSASVGDRVTITCRASQGISSWLAWYQQKPEKAPKSLIYAASSLQSGVPSRFSGSGSGTDFTLTISSLQPEDFATYYCQQYNSYPLTFGGGTKVEIK	7 pM
1251-D06 heavy chain paired with VL SEQ ID NO: 272 (antibody, V domains shown) VH: QVQLVESGGGVVQPGRSLRLSCAASGFSFGSYGMHWVRQAPDKGLEWVAVVWYDGSKTIYADSVKGRFTISRDNSKNTLYLQMNSLRAEDTAVYYCARGGTLVRGAVYGLDVWGQGTTVTVSS VL: DIQMTQSPSSLSASVGDRVTITCRASQGISSWLAWYQQKPEKAPKSLIYAASSLQSGVPSRFSGSGSGTDFTLTISSLQPEDFATYYCQQYNSYPLTFGGGTKVEIK	4 pM
1337-A06 light chain paired with VH 1251-A06 (SEQ ID NO: 236) (Fab, V domains shown) VH: QVQLVESGGGVVQPGRSLRLSCAASGFDFSSYGMHWVRQAPDKGLEWVAVIWDDGSDRYYADSVKGRFTISRDNSKNTLYLQMNSLRAEDTAVYYCARGGTRVLGAIHGTDVWGQGTTVTVSS VL: DIQMTQSPSSLSASVGDRVTITCRASQDIGSWVAWYQQKPEKAPKSLIYGADRLQSGVPSRFSGSGSGTDFTLTISSLQPEDFATYYCQQYNSYPLTFGGGTKVEIK	4 pM
1337-A08 light chain paired with VH 1251-A06 (SEQ ID NO: 236) (Fab, V domains shown) VH: QVQLVESGGGVVQPGRSLRLSCAASGFDFSSYGMHWVRQAPDKGLEWVAVIWDDGSDRYYADSVKGRFTISRDNSKNTLYLQMNSLRAEDTAVYYCARGGTRVLGAIHGTDVWGQGTTVTVSS VL: DIQMTQSPSSLSASVGDRVTITCRASQDIGSWVAWYQQKPEKAPKSLIYASDSLQSGVPSRFSGSGSGTDFTLTISSLQPEDFATYYCQQYNSYPLTFGGGTKVEIK	7 pM
1251-D02 heavy chain paired with VL SEQ ID NO: 272 (antibody, V domains shown) VH: QVQLVESGGGVVQPGRSLRLSCAASGFSFASHGMHWVRQAPDKGLEWVAVIWDDGSDRYYADSVKGRFTISRDNSKNTLYLQMNSLRAEDTAVYYCARGGTRVLGAIHGTDVWGQGTTVTVSS VL: DIQMTQSPSSLSASVGDRVTITCRASQGISSWLAWYQQKPEKAPKSLIYAASSLQSGVPSRFSGSGSGTDFTLTISSLQPEDFATYYCQQYNSYPLTFGGGTKVEIK	14 pM
1251-E06 heavy chain paired with VL SEQ ID NO: 272 (antibody, V domains shown) VH: QVQLVESGGGVVQPGRSLRLSCAASGFTFDSYGMHWVRQAPDKGLEWVAVIWYDGSNKVYADSVKGRFTISRDNSKNTLYLQMNSLRAEDTAVYYCARGGMVGQGAMFGLDVWGQGTTVTVSS VL: DIQMTQSPSSLSASVGDRVTITCRASQGISSWLAWYQQKPEKAPKSLIYAASSLQSGVPSRFSGSGSGTDFTLTISSLQPEDFATYYCQQYNSYPLTFGGGTKVEIK	15 pM
1251-B08 heavy chain paired with VL SEQ ID NO: 272 (antibody, V domains shown) VH: QVQLVESGGGVVQPGRSLRLSCAASGFNFSDYGMHWVRQAPDKGLEWVAVIWYDGSISYYADSVKGRFTISRDNSKNTLYLQMNSLRAEDTAVYYCARGGTVEHGAVYGTDVWGQGATVTVSS VL: DIQMTQSPSSLSASVGDRVTITCRASQGISSWLAWYQQKPEKAPKSLIYAASSLQSGVPSRFSGSGSGTDFTLTISSLQPEDFATYYCQQYNSYPLTFGGGTKVEIK	7 pM
1251-F06 heavy chain paired with VL SEQ ID NO: 272 (antibody, V domains shown) VH: QVQLVESGGGVVQPGRSLRLSCAASGFTFSSFGMHWVRQAPDKGLEWVAVIWYDGSNEYYADSVKGRFTISRDNSKNTLYLQMNSLRAEDTAVYYCARGGSLVTRGVYGLDVWGQGTTVTVSS VL: DIQMTQSPSSLSASVGDRVTITCRASQGISSWLAWYQQKPEKAPKSLIYAASSLQSGVPSRFSGSGSGTDFTLTISSLQPEDFATYYCQQYNSYPLTFGGGTKVEIK	17 pM
1251-F07 heavy chain paired with VL SEQ ID NO: 272 (antibody, V domains shown) VH: QVQLVESGGGVVQPGRSLRLSCAASGFTFSSHGMHWVRQAPDKGLEWVAVIWDDGSNEVYADSVKGRFTISRDNSKNTLYLQMNSLRAEDTAVYYCARGGTRIRGLRYGTDVWGQGTTVTVSS VL: DIQMTQSPSSLSASVGDRVTITCRASQGISSWLAWYQQKPEKAPKSLIYAASSLQSGVPSRFSGSGSGTDFTLTISSLQPEDFATYYCQQYNSYPLTFGGGTKVEIK	9 pM
1337-A04 light chain paired with VH 1251-A06 (SEQ ID NO: 236) (Fab, V domains shown) VH: QVQLVESGGGVVQPGRSLRLSCAASGFDFSSYGMHWVRQAPDKGLEWVAVIWDDGSDRYYADSVKGRFTISRDNSKNTLYLQMNSLRAEDTAVYYCARGGTRVLGAIHGTDVWGQGTTVTVSS VL: DIQMTQSPSSLSASVGDRVTITCRASQDIGRWVAWYQQKPEKAPKSLIYGASSLQSGVPSRFSGSGSGTDFTLTISSLQPEDFATYYCQQYNTYPLTFGGGTKVEIK	4 pM
1337-A07 light chain paired with VH 1251-A06 (SEQ ID NO: 236) (Fab, V domains shown) VH: QVQLVESGGGVVQPGRSLRLSCAASGFDFSSYGMHWVRQAPDKGLEWVAVIWDDGSDRYYADSVKGRFTISRDNSKNTLYLQMNSLRAEDTAVYYCARGGTRVLGAIHGTDVWGQGTTVTVSS VL: DIQMTQSPSSLSASVGDRVTITCRASQGISSWVAWYQQKPEKAPKSLIYGASRLQSGVPSRFSGSGSGTDFTLTISSLQPEDFATYYCQQYHTYPLTFGGGTKVEIK	4 pM
1251-G02 heavy chain paired with VL SEQ ID NO: 272 (antibody, V domains shown) VH: QVQLVESGGGVVQPGRSLRLSCAASGFTFSSYGMHWVRQAPDKGLEWVAVIWHDGSKDYYADSVKGRFTISRDNSKNTLYLQMNSLRAEDTAVYYCARGGQLDHGAIYGLDVWGQGTTVTVSS VL: DIQMTQSPSSLSASVGDRVTITCRASQGISSWLAWYQQKPEKAPKSLIYAASSLQSGVPSRFSGSGSGTDFTLTISSLQPEDFATYYCQQYNSYPLTFGGGTKVEIK	13 pM
1337-A09 light chain paired with VH 1251-A06 (SEQ ID NO: 236) (Fab, V domains shown) VH: QVQLVESGGGVVQPGRSLRLSCAASGFDFSSYGMHWVRQAPDKGLEWVAVIWDDGSDRYYADSVKGRFTISRDNSKNTLYLQMNSLRAEDTAVYYCARGGTRVLGAIHGTDVWGQGTTVTVSS VL: DIQMTQSPSSLSASVGDRVTITCRASQGIGSWLAWYQQKPEKAPKSLIYAADRLQSGVPSRFSGSGSGTDFTLTISSLQPEDFATYYCQQYHTYPLTFGGGTKVEIK	4 pM
1251-C03 heavy chain paired with VL SEQ ID NO: 272 (antibody, V domains shown) VH: QVQLVESGGGVVQPGRSLRLSCAASGFNFSSYGMHWVRQAPDKGLEWVAVIWYDGSIKNYADSVKGRFTISRDNSKNTLYLQMNSLRAEDTAVYYCARGGALMRGEFSGHDVWGQGTTVTVSS VL: DIQMTQSPSSLSASVGDRVTITCRASQGISSWLAWYQQKPEKAPKSLIYAASSLQSGVPSRFSGSGSGTDFTLTISSLQPEDFATYYCQQYNSYPLTFGGGTKVEIK	50 pM
1251-D09 heavy chain paired with VL SEQ ID NO: 272 (antibody, V domains shown) VH: QVQLVESGGGVVQPGRSLRLSCAASGFSFSSYGMHWVRQAPDKGLEWVAVIWYDASIRKYAGSVKGRFTISRDNSKNTLYLQMNSLRAEDTAVYYCARGGTVERGAIYGTDVWGQGTTVTVSS VL: DIQMTQSPSSLSASVGDRVTITCRASQGISSWLAWYQQKPEKAPKSLIYAASSLQSGVPSRFSGSGSGTDFTLTISSLQPEDFATYYCQQYNSYPLTFGGGTKVEIK	7 pM
1251-A06 heavy chain paired with VL SEQ ID NO: 272 (antibody, V domains shown) VH: QVQLVESGGGVVQPGRSLRLSCAASGFDFSSYGMHWVRQAPDKGLEWVAVIWDDGSDRYYADSVKGRFTISRDNSKNTLYLQMNSLRAEDTAVYYCARGGTRVLGAIHGTDVWGQGTTVTVSS VL: DIQMTQSPSSLSASVGDRVTITCRASQGISSWLAWYQQKPEKAPKSLIYAASSLQSGVPSRFSGSGSGTDFTLTISSLQPEDFATYYCQQYNSYPLTFGGGTKVEIK	0.2 pM
1337-A05 light chain paired with VH 1251-A06 (SEQ ID NO: 236) (Fab, V domains shown) VH: QVQLVESGGGVVQPGRSLRLSCAASGFDFSSYGMHWVRQAPDKGLEWVAVIWDDGSDRYYADSVKGRFTISRDNSKNTLYLQMNSLRAEDTAVYYCARGGTRVLGAIHGTDVWGQGTTVTVSS VL: DIQMTQSPSSLSASVGDRVTITCRASQGIGRWVAWYQQKPEKAPKSLIYGADRLQSGVPSRFSGSGSGTDFTLTISSLQPEDFATYYCQQYNSYPLTFGGGTKVEIK	4 pM
1193-E06b (scFv) scFv: EVQLLESGGGLVQPGGSLRLSCAASGFTFNNTDMSWVRQAPGKGLEWVGIINGSGGATNYADSVKGRFTISRDNSKNTLYLQMNSLRAEDTAVYYCAKFENEWEVSMDYWGQGTLVTVSSGGGGSGGGGSGGGGSEIVLTQSPGTLSLSPGERATLSCRASQSVSSSYLAWYQQKPGQAPRLLIYGASSRATGIPDRFSGSGSGTDFTLTISRLEPEDFAVYYCQQHYTTPPTFGQGTKVEIK	8670 pM
1193-B06 (scFv) scFv: EVQLLESGGGLVQPGGSLRLSCAASGFTFTGNWMSWVRQAPGKGLEWVGIIYGTSGATYYADSVKGRFTISRDNSKNTLYLQMNSLRAEDTAVYYCAKPSMSGSRGFDYWGQGTLVTVSSGGGGSGGGGSGGGGSEIVLTQSPGTLSLSPGERATLSCRAGQSVSSSYLAWYQQKPGQAPRLLIYGASSRATGIPDRFSGSGSGTDFTLTISRLEPEDFAVYYCQQHYTTPPTFGQGTKVEIK	10300 pM
1193-C08 (scFv) scFv: EVQLLESGGGLVQPGGSLRLSCAASGFTFNNNWMSWVRQAPGKGLEWVGIINGDDGYTYYADRVKGRFTIIRDNSKNTLYLQMNSLRAEDTAVYYCAKVALGRPRRFDYWGQGTLVTVSSGGGGSGGGGSGGGGSEIVLTQSPGTLSLTPGERATLSCRASQSVSSNYLAWYQQKPGQAPRLLIYGASSRATGIPDRFSGSGSGTDFTLTISRLEPEDFAMYYCQQHYTTPPTFGQGTKVEIK	8660 pM
